From article PMC11272584 (Nature Metabolism, 2024)
Where a chain is given by its changes, count along the chain named.

Columns and labels:
[1] = molecular target: GIPR L13F (human) (UniProt P48546)
[2] = molecular target: T1, GIPR E288G (human) (UniProt P48546)
T1 sequence: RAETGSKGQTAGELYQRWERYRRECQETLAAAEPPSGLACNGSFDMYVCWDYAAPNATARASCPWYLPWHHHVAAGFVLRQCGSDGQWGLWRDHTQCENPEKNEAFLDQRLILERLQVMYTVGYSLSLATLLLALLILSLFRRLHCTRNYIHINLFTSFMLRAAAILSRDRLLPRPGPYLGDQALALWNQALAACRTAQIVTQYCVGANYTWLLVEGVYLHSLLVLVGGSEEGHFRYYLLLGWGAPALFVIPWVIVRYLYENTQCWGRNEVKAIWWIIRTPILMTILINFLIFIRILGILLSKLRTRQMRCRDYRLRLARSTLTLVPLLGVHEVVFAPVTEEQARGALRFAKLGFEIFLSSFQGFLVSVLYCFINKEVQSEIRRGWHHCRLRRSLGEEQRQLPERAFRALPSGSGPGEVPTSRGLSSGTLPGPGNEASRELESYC

[3] = molecular target: T2, GIPR R38L (human) (UniProt P48546)
T2 sequence: T1 sequence with R17L, G267E

[4] = molecular target: T3, GIPR K397N (human) (UniProt P48546)
T3 sequence: T1 sequence with G267E, K376N

[5] = molecular target: T4, GIPR T168A (human) (UniProt P48546)
T4 sequence: T1 sequence with T147A, G267E

[6] = molecular target: T5, GIPR E463Q (human) (UniProt P48546)
T5 sequence: T1 sequence with G267E, E442Q

[7] = molecular target: T6, GIPR T25R (human) (UniProt P48546)
T6 sequence: T1 sequence with T4R, G267E

- β-arrestin 2 recruitment (BRET) on stimulation with GIP(1-42): logEC50 (Arrestin) (log M (inferred)) [1]: -8.75
- β-arrestin 2 recruitment (BRET) on stimulation with GIP(1-42): logEC50 (Arrestin) (log M (inferred)) [2]: -9.15
- β-arrestin 2 recruitment (BRET) on stimulation with GIP(1-42): logEC50 (Arrestin) (log M (inferred)) [3]: -9
- β-arrestin 2 recruitment (BRET) on stimulation with GIP(1-42): logEC50 (Arrestin) (log M (inferred)) [4]: -8.9
- β-arrestin 2 recruitment (BRET) on stimulation with GIP(1-42): logEC50 (Arrestin) (log M (inferred)) [5]: -9.27
- β-arrestin 2 recruitment (BRET) on stimulation with GIP(1-42): logEC50 (Arrestin) (log M (inferred)) [6]: -9.08
- β-arrestin 2 recruitment (BRET) on stimulation with GIP(1-42): logEC50 (Arrestin) (log M (inferred)) [7]: -9.3
Substance: β-arrestin 2 (Rluc8-Arrestin-3-Sp1) (from UniProt P32121 1-409) (natural protein)
